Assay [1] has as its target T1, GST alone (UniProt P08515 1-218 = GST). The assay can be described thus: GST pull-down from NIH 3T3 cell extract, Western blot with anti-agnoprotein antibody.
Assay [2] concerns the target p53 in NIH 3T3 cell protein extract (mouse (endogenous in mouse fibroblast …, UniProt P02340 1-390)). The assay can be described thus: co-immunoprecipitation with anti-p53 antibody pAb 421, Western blot with rabbit anti-Agno. (In general: A western blot detects proteins with antibodies after separation by electrophoresis.)
Assay [3] addresses T1, GST alone. The assay can be described thus: GST pull-down, autoradiography.

T1 sequence (P08515 whole entry): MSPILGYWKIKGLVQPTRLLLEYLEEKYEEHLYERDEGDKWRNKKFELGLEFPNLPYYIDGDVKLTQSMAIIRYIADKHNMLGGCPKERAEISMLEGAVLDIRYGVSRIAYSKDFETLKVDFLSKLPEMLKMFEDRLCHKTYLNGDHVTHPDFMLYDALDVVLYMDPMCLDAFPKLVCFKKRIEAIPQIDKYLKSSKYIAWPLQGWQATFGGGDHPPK
p53 in NIH 3T3 cell protein extract (mouse, sequence (P02340 whole entry): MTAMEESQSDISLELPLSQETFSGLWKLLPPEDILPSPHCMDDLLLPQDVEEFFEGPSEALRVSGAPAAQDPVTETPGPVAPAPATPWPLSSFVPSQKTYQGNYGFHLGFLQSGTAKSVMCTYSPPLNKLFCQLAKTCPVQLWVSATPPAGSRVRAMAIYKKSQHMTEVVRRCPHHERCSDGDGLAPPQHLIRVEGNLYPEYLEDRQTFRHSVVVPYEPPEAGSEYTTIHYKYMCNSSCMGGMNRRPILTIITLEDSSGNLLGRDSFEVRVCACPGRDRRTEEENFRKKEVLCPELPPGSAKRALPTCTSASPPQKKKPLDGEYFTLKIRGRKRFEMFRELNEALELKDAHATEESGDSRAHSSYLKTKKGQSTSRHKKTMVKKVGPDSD

B1: YFP-agnoprotein (other)
chain: MVLRQLSRKASVKVSKTWSGTKKRAQRILIFLLEFLLDFCTGEDSVDGKKRQRHSGLTEQTYSALPEPKAT
notes: also called GFP-Agnoprotein; fusion agnoprotein
Regarding B1, the results for the binding result (in the assay with GST alone [1]; in assay [2]) were “no binding” and “binds”, respectively.

B2: in vitro synthesized [35S]-labeled agnoprotein (other)
chain: B1 chain
notes: also called in vitro translated [35S]-labeled agnoprotein
With B2, in the assay with GST alone [3], the binding result is listed as “no binding”.

For the origin of these results see patent US20060052296A1 (TEMPLE UNIVERSITY OF THE COMMONWEALTH SYSTEM OF HIGHER …, published 2006).
